Assay results as given in PMC5391116 (PLoS ONE, 2017).

Molecular target: Human MET ECD (extracellular domain) containing a FLIS tag (Homo sapiens, UniProt P08581)
Test: cell-based or functional assay

Human MET ECD (extracellular domain) containing a FLIS tag, sequence (P08581 25-932): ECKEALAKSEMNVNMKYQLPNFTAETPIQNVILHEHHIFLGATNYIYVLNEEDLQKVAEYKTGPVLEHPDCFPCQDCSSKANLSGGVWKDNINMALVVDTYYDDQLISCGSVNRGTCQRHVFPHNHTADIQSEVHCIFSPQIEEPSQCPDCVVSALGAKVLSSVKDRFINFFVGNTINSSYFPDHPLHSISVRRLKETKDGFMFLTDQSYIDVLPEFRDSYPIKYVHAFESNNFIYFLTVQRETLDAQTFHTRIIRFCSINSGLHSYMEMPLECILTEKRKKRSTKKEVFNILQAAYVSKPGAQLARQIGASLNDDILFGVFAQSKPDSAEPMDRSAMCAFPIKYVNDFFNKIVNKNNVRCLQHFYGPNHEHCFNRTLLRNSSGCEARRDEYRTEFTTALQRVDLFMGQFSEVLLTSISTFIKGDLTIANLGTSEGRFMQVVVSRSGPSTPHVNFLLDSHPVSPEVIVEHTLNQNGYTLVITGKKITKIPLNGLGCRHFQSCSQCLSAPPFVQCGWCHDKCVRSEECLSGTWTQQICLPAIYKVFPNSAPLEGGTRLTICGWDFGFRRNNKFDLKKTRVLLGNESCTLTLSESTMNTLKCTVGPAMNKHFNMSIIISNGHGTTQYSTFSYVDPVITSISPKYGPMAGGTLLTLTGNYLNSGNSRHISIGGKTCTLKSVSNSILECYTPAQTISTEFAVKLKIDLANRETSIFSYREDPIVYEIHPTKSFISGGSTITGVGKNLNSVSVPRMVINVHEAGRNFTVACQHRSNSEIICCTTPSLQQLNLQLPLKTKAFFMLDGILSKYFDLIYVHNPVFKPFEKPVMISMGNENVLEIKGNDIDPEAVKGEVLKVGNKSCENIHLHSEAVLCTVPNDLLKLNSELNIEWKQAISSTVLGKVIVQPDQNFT

- phospho-AKT activity levels in Caki-1 cells (MSD ELISA), various doses of antibody for 15 minutes: > 8 fold
B1: IgG1 MET antibody (variable regions from LY2875358 on human IgG1 constant regions) (antibody, V domains shown)
VH: QVQLVQSGAEVKKPGASVKVSCKASGYTFTDYYMHWVRQAPGQGLEWMGRVNPNRRGTTYNQKFEGRVTMTTDTSTSTAYMELRSLRSDDTAVYYCARANWLDYWGQGTTVTVSS
VL: DIQMTQSPSSLSASVGDRVTITCSVSSSVSSIYLHWYQQKPGKAPKLLIYSTSNLASGVPSRFSGSGSGTDFTLTISSLQPEDFATYYCQVYSGYPLTFGGGTKVEIK
